# Values quoted from earlier work as cited in US4287185A, “Method for the detection of viruses” (Suntory Ltd., priority 1978, dated 1981).
# B1: neocarzinostatin (protein, UniProt P0A3R9 35-147, looked up)
# Neocarzinostatin: AAPTATVTPSSGLSDGTVVKVAGAGLQAGTAYDVGQCAWVDTGVLACNPADFSSVTADANGSASTSLTVRRSFEGFLFDGTRWGTVDCTTAACQVGLSDAAGNGPEGVAISFN
# notes: carcinostatic agent having 109 constituent amino acids, already put into clinical practice
# Settings: mouse, in vivo
molecule,measurement,value
B1,LD50 compared with that of SP (about 3.5 mg/Kg),almost the same
